In US20200384066A1:

Target: angiogenin (UniProt P03950)
Experiment: phage ELISA; angiogenin coated at 4 ug/mL, negative control phage, anti-g8p antibody and HRP secondary

Chain of angiogenin (P03950 25-147 limits assumed): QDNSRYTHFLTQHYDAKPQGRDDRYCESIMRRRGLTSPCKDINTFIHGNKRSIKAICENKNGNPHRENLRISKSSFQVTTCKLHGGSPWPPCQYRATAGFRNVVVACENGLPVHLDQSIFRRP

Substance wild type phage has an OD value (450 nm) of 0.191 OD.
